According to article PMC8497999 (iScience, 2021):
Substitutions are numbered along the chain they refer to. Names may count otherwise. Like-named read-outs stand apart in the source and are kept apart here.

T1: His6-ECSIT (mature human mitochondrial ECSIT with N-terminal His tag) (human, UniProt Q9BQ95 49-431)
T1 sequence: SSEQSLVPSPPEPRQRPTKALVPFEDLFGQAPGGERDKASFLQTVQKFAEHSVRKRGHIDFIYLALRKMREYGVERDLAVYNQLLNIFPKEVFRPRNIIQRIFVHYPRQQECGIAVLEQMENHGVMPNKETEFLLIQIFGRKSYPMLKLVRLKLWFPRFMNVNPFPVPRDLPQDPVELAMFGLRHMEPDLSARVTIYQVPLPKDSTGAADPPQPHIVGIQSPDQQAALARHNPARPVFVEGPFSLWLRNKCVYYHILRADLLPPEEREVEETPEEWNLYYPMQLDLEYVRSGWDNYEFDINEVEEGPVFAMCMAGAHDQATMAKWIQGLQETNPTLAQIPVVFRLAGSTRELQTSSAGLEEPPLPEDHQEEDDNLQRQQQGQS

B1: ECSIT, tag-free (mature human mitochondrial ECSIT) (natural protein)
chain: T1 sequence
B2: ACAD9-His6 R469W (enzyme)
chain: AFAKELFLGKIKKKEVFPFPEVSQDELNEINQFLGPVEKFFTEEVDSRKIDQEGKIPDETLEKLKSLGLFGLQVPEEYGGLGFSNTMYSRLGEIISMDGSITVTLAAHQAIGLKGIILAGTEEQKAKYLPKLASGEHIAAFCLTEPASGSDAASIRSRATLSEDKKHYILNGSKVWITNGGLANIFTVFAKTEVVDSDGSVKDKITAFIVERDFGGVTNGKPEDKLGIRGSNTCEVHFENTKIPVENILGEVGDGFKVAMNILNSGRFSMGSVVAGLLKRLIEMTAEYACTRKQFNKRLSEFGLIQEKFALMAQKAYVMESMTYLTAGMLDQPGFPDCSIEAAMVKVFSSEAAWQCVSEALQILGGLGYTRDYPYERILRDTRILLIFEGTNEILRMYIALTGLQHAGRILTTRIHELKQAKVSTVMDTVGWRLRDSLGRTVDLGLTGNHGVVHPSLADSANKFEENTYCFGRTVETLLLRFGKTIMEEQLVLKRVANILINLYGMTAVLSRASRSIRIGLRNHDHEVLLANTFCVEAYLQNLFSLSQLDKYAPENLDEQIKKVSQQILEKRAYICAHPLDRTC
B3: ACAD9-His6 R518H (enzyme)
chain: B2 chain with W432R, R481H
B4: ACAD9-His6 R532W (enzyme)
chain: B2 chain with W432R, R495W
B5: ACAD9-His6 E426Q (enzyme)
chain: B2 chain with E389Q, W432R
B6: Loop12-ACAD9 (ACAD9-His6 with the linker between Thr450 and Asp480 replaced by 12 residues of GGS repeats) (enzyme)
chain: AFAKELFLGKIKKKEVFPFPEVSQDELNEINQFLGPVEKFFTEEVDSRKIDQEGKIPDETLEKLKSLGLFGLQVPEEYGGLGFSNTMYSRLGEIISMDGSITVTLAAHQAIGLKGIILAGTEEQKAKYLPKLASGEHIAAFCLTEPASGSDAASIRSRATLSEDKKHYILNGSKVWITNGGLANIFTVFAKTEVVDSDGSVKDKITAFIVERDFGGVTNGKPEDKLGIRGSNTCEVHFENTKIPVENILGEVGDGFKVAMNILNSGRFSMGSVVAGLLKRLIEMTAEYACTRKQFNKRLSEFGLIQEKFALMAQKAYVMESMTYLTAGMLDQPGFPDCSIEAAMVKVFSSEAAWQCVSEALQILGGLGYTRDYPYERILRDTRILLIFEGTNEILRMYIALTGLQHAGRILTTGGSGGSGGSGGSDLGLTGNHGVVHPSLADSANKFEENTYCFGRTVETLLLRFGKTIMEEQLVLKRVANILINLYGMTAVLSRASRSIRIGLRNHDHEVLLANTFCVEAYLQNLFSLSQLDKYAPENLDEQIKKVSQQILEKRAYICAHPLDRTC
B7: His6-C-ECSIT (C-terminal domain of ECSIT, Leu249-Ser431, with N-terminal His tag) (domain or fragment)
chain: LPKDSTGAADPPQPHIVGIQSPDQQAALARHNPARPVFVEGPFSLWLRNKCVYYHILRADLLPPEEREVEETPEEWNLYYPMQLDLEYVRSGWDNYEFDINEVEEGPVFAMCMAGAHDQATMAKWIQGLQETNPTLAQIPVVFRLAGSTRELQTSSAGLEEPPLPEDHQEEDDNLQRQQQGQS
B8: His6-SMT3-NDUFAF1 (SUMO fusion of mature human NDUFAF1) (natural protein)
chain: YPFLGIRFAEYSSSLQKPVASPGKASSQRKTEGDLQGDHQKEVALDITSSEEKPDVSFDKAIRDEAIYHFRLLKDEIVDHWRGPEGHPLHEVLLEQAKVVWQFRGKEDLDKWTVTSDKTIGGRSEVFLKMGKNNQSALLYGTLSSEAPQDGESTRSGYCAMISRIPRGAFERKMSYDWSQFNTLYLRVRGDGRPWMVNIKEDTDFFQRTNQMYSYFMFTRGGPYWQEVKIPFSKFFFSNRGRIRDVQHELPLDKISSIGFTLADKVDGPFFLEIDFIGVFTDPAHTEEFAYENSPELNPRLFK
B9: C-ECSIT, tag-free (C-terminal domain of ECSIT, Leu249-Ser431) (domain or fragment)
chain: B7 chain
B10: ACAD9 (non-tagged wild type) (enzyme)
chain: B2 chain with W432R
B11: ACAD9-His6 (wild type ACAD9 with a C-terminal His-tag) (enzyme)
chain: B2 chain with W432R

Experiments:
[1] = molecular target: B11; assay: pull-down
SEC = molecular target: the molecule itself; assay: SEC
[2] = molecular target: B10; assay: SEC
[3] = molecular target: T1, His6-ECSIT (mature human mitochondrial …); assay: SEC
[4] = molecular target: T1, His6-ECSIT (mature human mitochondrial …); assay: SEC; remark: listed apart in the source
SEC-SAXS = molecular target: the molecule itself; assay: SEC-SAXS

Binder	stoichiometry N (SEC)	also measured
B1		stoichiometry N [1]: ~1 monomer:monomer
B2	2	
B3	2	
B4	2	
B5	2	
B6	2	
B7	4	stoichiometry N [2]: 1 C-ECSIT monomer per ACAD9 monomer (4:4)
B8		stoichiometry N [3]: 1 monomer:monomer; stoichiometry N [4]: 1 NDUFAF1 monomer per ECSIT monomer (2:2)
B9		stoichiometry N [1]: ~1 monomer:monomer
B10		stoichiometry N (SEC-SAXS): 2
B11	2	
